These results are taken from patent US20080039419.

Data set [1] deals with T1, synthetic peptide representing the β1 integrin cytoplasmic domain, P05556.
T1 chain: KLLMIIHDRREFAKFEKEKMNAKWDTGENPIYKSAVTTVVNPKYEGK

For data set [2], the target named is T2, synthetic peptide representing the β3 integrin cytoplasmic domain, P05106.
T2 chain: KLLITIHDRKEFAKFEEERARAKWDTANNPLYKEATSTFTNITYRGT

B1: GST-ILK^232 (GST fusion of ILK amino acid residues 132-451) (protein)
chain: YGEMPVDKAKAPLRELLRERAEKMGQNLNRIPYKDTFWKGTTRTRPRNGTLNKHSGIDFKQLNFLTKLNENHSGELWKGRWQGNDIVVKVLKVRDWSTRKSRDFNEECPRLRIFSHPNVLPVLGACQSPPAPHPTLITHWMPYGSLYNVLHEGTNFVVDQSQAVKFALDMARGMAFLHTLEPLIPRHALNSRSVMIDEDMTARISMADVKFSFQCPGRMYAPAWVAPEALQKKPEDTNRRSADMWSFAVLLWELVTREVPFADLSNMEIGMKVALEGLRPTIPPGISPHVCKLMKICMNEDPAKRPKFDMIVPILEKMQD
Take B1: the “phosphorylation of the synthetic peptide by recombinant kinase in vitro” value in data set [1] and in data set [2] was “The results demonstrating phosphorylation of synthetic β peptides by endogenous ILK are identical to those seen with recombinant GST-ILK^232” in each case.

B2: integrin linked kinase (ILK), full length (protein)
chain: MDDIFTQCREGNAVAVRLWLDNTENDLNQGDDHGFSPLHWACREGRSAVVEMLIMRGARINVMNRGDDTPLHLAASHGHRDIVQKLLQYKADINAVNEHGNVPLHYACFWGQDQVAEDLVANGALVSICNKYGEMPVDKAKAPLRELLRERAEKMGQNLNRIPYKDTFWKGTTRTRPRNGTLNKHSGIDFKQLNFLTKLNENHSGELWKGRWQGNDIVVKVLKVRDWSTRKSRDFNEECPRLRIFSHPNVLPVLGACQSPPAPHPTLITHWMPYGSLYNVLHEGTNFVVDQSQAVKFALDMARGMAFLHTLEPLIPRHALNSRSVMIDEDMTARISMADVKFSFQCPGRMYAPAWVAPEALQKKPEDTNRRSADMWSFAVLLWELVTREVPFADLSNMEIGMKVALEGLRPTIPPGISPHVCKLMKICMNEDPAKRPKFDMIVPILEKMQDK
In the case of B2, in data set [1], the “autophosphorylation of ILK in immune complex kinase assay” value is given as “The β1 peptide selectively inhibited autophosphorylation of ILK in these reactions”; the “phosphorylation of the synthetic peptide in ILK immune complex kinase assay (91-3 immunoprecipitates of PC3 lysates)” value is “The β1 peptide was labeled on serine and threonine residues, with approximately equal stoichiometry”. In addition, in data set [2], the “phosphorylation of the synthetic peptide in ILK immune complex kinase assay (91-3 immunoprecipitates of PC3 lysates)” value is reported as “a similar peptide representing the β3 cytoplasmic domain was not detectably labeled by P59ILK”.
